Residue numbers refer to the chain shown, from its start. Names and notes keep the numbering of the source.

The chains are these.
T1: His-ChlR1 63-214 (human, UniProt Q96FC9 63-214)
T1 construct: DNA helicase ChlR1, human, amino acids 63 to 214, cloned from pCMV-FLAG-ChlR1 into pHIS-TEV; Vector pHIS-TEV (NcoI/EcoRI); held on nickel resin by the hexahistidine tag in the pull-down; also called ChlR1 63-214 peptide
T1 sequence (looked up): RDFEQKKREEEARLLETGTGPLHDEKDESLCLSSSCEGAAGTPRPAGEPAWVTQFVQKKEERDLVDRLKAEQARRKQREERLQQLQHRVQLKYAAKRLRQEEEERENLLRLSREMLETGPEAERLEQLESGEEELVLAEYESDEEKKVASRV

B1: HPV16 E2 D124A mutant (natural protein)
chain: METLCQRLNVCQDKILTHYENDSTDLRDHIDYWKHMRLECAIYYKAREMGFKHINHQVVPTLAVSKNKALQAIELQLTLETIYNSQYSNEKWTLQDVSLEVYLTAPTGCIKKHGYTVEVQFDGAICNTMHYTNWTHIYICEEASVTVVEGQVDYYGLYYVHEGIRTYFVQFKDDAEKYSKNKVWEVHAGGQVILCPTSVFSSNEVSSPEIIRQHLANHPAATHTKAVALGTEETQTTIQRPRSEPDTGNPCHTTKLLHRDSVDSAPILTAFNSSHKGRINCNSNTTPIVHLKGDANTLKCLRYRFKKHCTLYTAVSSTWHWTGHNVKHKSAIVTLTYDSEWQRDQFLSQVKIPKTITVSTGFMSI
notes: E2 protein of human papillomavirus 16, from pCMV-16E2 by site-directed mutagenesis; source: C33a cells, transfected (mutated pCMV-16E2), in lysate
B2: HPV16 E2 K177A mutant (natural protein)
chain: B1 chain with A124D, K177A
notes: as for B1
B3: HPV16 E2 D173A mutant (natural protein)
chain: B1 chain with A124D, D173A
notes: as for B1
B4: HPV16 E2 H130R mutant (natural protein)
chain: B1 chain with A124D, H130R
notes: as for B1
B5: HPV16 E2 Y131A mutant (natural protein)
chain: B1 chain with A124D, Y131A
notes: as for B1
B6: HPV16 E2 E118A mutant (natural protein)
chain: B1 chain with E118A, A124D
notes: as for B1

The target of the test is T1, His-ChlR1 63-214. The test is described as follows: pull-down; His-ChlR1 1-130 or His-ChlR1 63-214 immobilised on nickel resin, incubated with cleared whole-cell lysate of E2-transfected C33a cells for 16 h at 4°C; bound E2 by Western blotting, densitometry against input. The conditions noted are these: one partner purified.
For B1, the “% E2 bound (in comparison to the E2^WT binding level)” value (“% E2 bound” for short) came out at 38.8%.

On to B2, for which the “% E2 bound” value was determined as 36.3%.

In the case of B3, the “% E2 bound” value worked out at 80.5%.

On to B4, for which the “% E2 bound” value stood at 45.2%.

For the molecule B5, the “% E2 bound” value came to 5.43%.

Turning to B6, the “% E2 bound” value turned out to be 107%.

For the origin of these results see paper PMC5165203, “The Cellular DNA Helicase ChlR1 Regulates Chromatin and Nuclear Matrix Attachment of the Human Papillomavirus 16 E2 Protein and High-Copy-Number Viral Genome Establishment” (Journal of Virology, 2016).
